# “And” between values parts separate entries of the source, which are not always exact repeats. Equal values may be shown once.
# T1: His-TEV-ORF1p (Homo sapiens, UniProt Q9UN81 1-338)
# T1 chain: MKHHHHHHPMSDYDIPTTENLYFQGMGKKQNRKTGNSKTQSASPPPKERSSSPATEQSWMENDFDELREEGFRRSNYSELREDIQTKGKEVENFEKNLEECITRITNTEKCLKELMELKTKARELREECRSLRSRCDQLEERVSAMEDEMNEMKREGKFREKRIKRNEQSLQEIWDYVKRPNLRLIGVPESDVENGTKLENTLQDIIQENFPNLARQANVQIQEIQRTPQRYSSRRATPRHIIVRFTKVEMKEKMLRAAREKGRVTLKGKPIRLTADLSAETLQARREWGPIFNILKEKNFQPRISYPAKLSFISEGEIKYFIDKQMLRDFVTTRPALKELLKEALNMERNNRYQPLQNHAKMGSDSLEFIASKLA
# Tests used:
# ΔStammer-ORF1p (human) = assay: mass photometry; purified ORF1p alone, landing on a glass coverslip; 300 nM ORF1p in 20 mM Hepes pH 7.5, 50 mM KCl, 1 mM MgCl2, 1 mM DTT; also a protein concentration series, a KCl series and 150 mM KCl; monomers to trimers, trimers to hexamers and higher-order oligomers
# ΔStammer-ORF1p = ΔStammer-ORF1p (Homo sapiens, UniProt Q9UN81 1-338, del91-93); assay: fluorescence anisotropy; 50 mM KCl; 20 mM Hepes pH 7.5, 50 mM KCl (150 or 300 mM in Fig. S1D rows), 1 mM MgCl2, 1 mM DTT; 1 nM 6-FAM oligo; temperature not stated; conditions: protein: recombinant, tags: tag removed by TEV, N-terminal G left, chain copies: 3
# K3A/K4A-ORF1p = K3A/K4A-ORF1p (Homo sapiens, UniProt Q9UN81 1-338, K3A;K4A); assay: as above; conditions: protein: recombinant, tags: tag removed, N-terminal G left, chain copies: 3
# ORF1p WT [1] = target: T2, ORF1p WT (Homo sapiens, UniProt Q9UN81 1-338); assay: as above; conditions: protein: recombinant, tags: tag removed, N-terminal G left, chain copies: 3
# His-TEV-ORF1p = target: T1, His-TEV-ORF1p; assay: as above; conditions: protein: recombinant, tags: uncleaved N-terminal His-TEV, C-terminal ybbR, chain copies: 3
# ORF1p WT [2] = target: T2, ORF1p WT; assay: fluorescence anisotropy; 150 mM KCl; 20 mM Hepes pH 7.5, 50 mM KCl (150 or 300 mM in Fig. S1D rows), 1 mM MgCl2, 1 mM DTT; 1 nM 6-FAM oligo; temperature not stated; conditions: protein: recombinant; tags: tag removed, N-terminal G left; chain copies: 3; label: 5' 6-FAM (anisotropy); unstructured
# ORF1p WT [3] = target: T2, ORF1p WT; assay: fluorescence anisotropy; 300 mM KCl; 20 mM Hepes pH 7.5, 50 mM KCl (150 or 300 mM in Fig. S1D rows), 1 mM MgCl2, 1 mM DTT; 1 nM 6-FAM oligo; temperature not stated; conditions: protein: recombinant; tags: tag removed, N-terminal G left; chain copies: 3; label: 5' 6-FAM (anisotropy); unstructured
# [4] = target: the molecule itself; assay: mass photometry; purified ORF1p alone, landing on a glass coverslip; 300 nM ORF1p in 20 mM Hepes pH 7.5, 50 mM KCl, 1 mM MgCl2, 1 mM DTT; also a protein concentration series, a KCl series and 150 mM KCl; monomers to trimers, trimers to hexamers and higher-order oligomers
# ORF1p WT [5] = target: T3, ORF1p WT (Homo sapiens, UniProt Q9UN81); assay: mass photometry; second peak, two trimers per RNA; Anisotropy: 20 mM Hepes pH 7.5, 50 mM KCl, 1 mM MgCl2, 1 mM DTT, 1 nM 6-FAM oligo, temperature not stated; DNA curtains: 50, 150 or 300 mM KCl, RNP premix 1 min at room temperature; conditions: protein: recombinant; tags: tag removed, N-terminal G left; chain copies: 3
# ORF1p WT [6] = target: T3, ORF1p WT; assay: mass photometry; two-trimer peak more prominent; Anisotropy: 20 mM Hepes pH 7.5, 50 mM KCl, 1 mM MgCl2, 1 mM DTT, 1 nM 6-FAM oligo, temperature not stated; DNA curtains: 50, 150 or 300 mM KCl, RNP premix 1 min at room temperature; conditions: protein: recombinant; tags: tag removed, N-terminal G left; chain copies: 3
# ORF1p WT [7] = target: T3, ORF1p WT; assay: mass photometry; one trimer per RNA; Anisotropy: 20 mM Hepes pH 7.5, 50 mM KCl, 1 mM MgCl2, 1 mM DTT, 1 nM 6-FAM oligo, temperature not stated; DNA curtains: 50, 150 or 300 mM KCl, RNP premix 1 min at room temperature; conditions: protein: recombinant; tags: tag removed, N-terminal G left; chain copies: 3
# [8] = label: 5' 6-FAM (anisotropy), unstructured
# [9] = label: 5' 6-FAM on strand 1 (anisotropy), blunt
molecule,measurement,setting,value
ΔStammer-ORF1p (natural protein),stoichiometry N,ΔStammer-ORF1p (human),6
ACCAUCAUCAAAGACCAAAAGUAGAUAAAA (ssRNA) [30 nt RNA],Kd,ΔStammer-ORF1p; [8],0.00806 µM
same,Kd,K3A/K4A-ORF1p; [8],0.0111 µM
same,Kd,ORF1p WT [1]; [8],0.00389 µM
same,Kd,His-TEV-ORF1p; [8],0.0177 µM
same,Kd,ORF1p WT [2],0.0113 µM
same,Kd,ORF1p WT [3],0.0119 µM
"WT-ORF1p (LINE-1 ORF1 protein, Homo sapiens) (natural protein, human, first printed residue of the construct, before the first methionine of ORF1p; left after TEV protease digestion; LINE-1 ORF1p, human, 338 residues as printed; also called pLH2087; source: E. coli BL21(DE3), purified as described previously (19); not shown: His6, N-terminal, cleaved) GMGKKQNRKTGNSKTQSASPPPKERSSSPATEQSWMENDFDELREEGFRRSNYSELREDIQTKGKEVENFEKNLEECITRITNTEKCLKELMELKTKARELREECRSLRSRCDQLEERVSAMEDEMNEMKREGKFREKRIKRNEQSLQEIWDYVKRPNLRLIGVPESDVENGTKLENTLQDIIQENFPNLARQANVQIQEIQRTPQRYSSRRATPRHIIVRFTKVEMKEKMLRAAREKGRVTLKGKPIRLTADLSAETLQARREWGPIFNILKEKNFQPRISYPAKLSFISEGEIKYFIDKQMLRDFVTTRPALKELLKEALNMERNNRYQPLQNHAKM",stoichiometry N,[4],6 and 3
"K3A/K4A-ORF1p (natural protein, human, first printed residue of the construct, before the first methionine of ORF1p; left after TEV protease digestion; LINE-1 ORF1p, human, with the N-terminal basic patch mutated; also called pLH2075; source: E. coli BL21(DE3), purified as described previously (19); not shown: His6, N-terminal, cleaved) GMGAAQNRKTGNSKTQSASPPPKERSSSPATEQSWMENDFDELREEGFRRSNYSELREDIQTKGKEVENFEKNLEECITRITNTEKCLKELMELKTKARELREECRSLRSRCDQLEERVSAMEDEMNEMKREGKFREKRIKRNEQSLQEIWDYVKRPNLRLIGVPESDVENGTKLENTLQDIIQENFPNLARQANVQIQEIQRTPQRYSSRRATPRHIIVRFTKVEMKEKMLRAAREKGRVTLKGKPIRLTADLSAETLQARREWGPIFNILKEKNFQPRISYPAKLSFISEGEIKYFIDKQMLRDFVTTRPALKELLKEALNMERNNRYQPLQNHAKM",binding result,[4],binds
90 nt RNA (ssRNA) RNA: GGGCGAAUUGGGUACCGGGCCCCCCCUCGAGGCCGGUAGAGGUGUGGUCAAUAAGAGCGACCUCAUACUAUACCUGAGAAAGCAACCUGA,binding result,ORF1p WT [5],binds
30 bp dsDNA (dsDNA) DNA 1: ACCATCATCAAAGACCAAAAGTAGATAAAA DNA 2: TTTTATCTACTTTTGGTCTTTGATGATGGT,Kd,ΔStammer-ORF1p; [9],0.0266 µM
same,Kd,K3A/K4A-ORF1p; [9],0.0218 µM
same,Kd,ORF1p WT [1]; [9],0.0189 µM
same,Kd,His-TEV-ORF1p; [9],0.0286 µM
ACCATCATCAAAGACCAAAAGTAGATAAAA (ssDNA) [30 nt ssDNA],Kd,ORF1p WT [1]; label: 5' 6-FAM,0.00827 µM
AAAAAAAAAAAAAAAAAAAAAAAAAAAAAA (ssRNA) [30 nt poly(A)],Kd,ORF1p WT [1]; label: 5' 6-FAM,0.00601 µM
120 nt RNA (ssRNA) RNA: GGGCGAAUUGGGUACCGGGCCCCCCCUCGAGGCCGGUAGAGGUGUGGUCAAUAAGAGCGACCUCAUACUAUACCUGAGAAAGCAACCUGACCUACAGGAAAGAGUUACUCAAGAAUAAGA,binding result,ORF1p WT [6],binds
30 bp RNA/DNA hybrid (DNA:RNA) RNA: ACCAUCAUCAAAGACCAAAAGUAGAUAAAA DNA: TTTTATCTACTTTTGGTCTTTGATGATGGT,Kd,"ORF1p WT [1]; label: 5' 6-FAM on RNA, blunt",0.00468 µM
60 nt RNA (ssRNA) RNA: GGGCGAAUUGGGUACCGGGCCCCCCCUCGAGGCCGGUAGAGGUGUGGUCAAUAAGAGCGA,binding result,ORF1p WT [7],binds

# — publication PMC12047440, “LINE-1 ribonucleoprotein condensates bind DNA to enable nuclear entry during mitosis” (Science Advances, 2024)
